B1: PLAGL1 (parent)
chain: CKDFLCQFCAQRFGRKDHLTRHTK

Variants of: B1
Assay: protein stability index of a GFP-peptide fusion (GPS, HEK-293T) (PSI 1-6); higher = more stable
Details: c terminus: a fixed tail appended
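Further: lentivirally expressed fusions sorted by FACS into six bins by GFP to DsRed ratio, PSI derived from sequencing read proportions per bin multiplied by bin number.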

Protein stability index of substitutions, site by site:
F8: D 3.12, E 2.62, G 2.32, H 2.87, I 1.93, K 2.69, L 2.89, M 2.19, N 2.82, P 2.47, Q 2.51, R 3.32, S 2.19, T 2.81, V 2.18, W 1.6, Y 1.77
C9: A 2.05, D 2.11, E 2, F 1.11, G 2.14, H 2.11, I 2.56, K 2.42, L 2.22, M 1.79, N 2.58, P 3.17, Q 2.72, R 1.45, S 2.03, T 1.93, V 2.46, W 2, Y 1.47
A10: C 2.19, D 1.87, E 1.69, F 1.96, G 1.79, H 1.9, I 1.83, K 2.48, L 1.79, M 1.65, N 1.96, P 2.03, Q 1.44, R 2.14, S 2.24, T 1.96, V 2.16, W 1.67, Y 2.16
Q11: A 1.84, C 1.85, D 1.75, E 2.14, F 1.82, G 2.44, H 1.67, I 1.82, K 2.02, L 2.29, M 2.22, N 2.01, P 2.07, R 2.3, S 3.17, T 1.75, V 2.04, W 1.76, Y 1.51
R12: A 1.97, C 2.86, D 1.65, E 2.13, F 1.68, G 2.54, H 2.38, I 2.6, K 3.04, L 1.47, M 1.94, N 2.22, P 1.81, Q 1.23, S 2.16, T 1.88, V 2.33, W 2.14, Y 2
F13: A 1.91, C 3.07, D 2.65, E 2.86, H 2.31, I 2.02, K 3.02, L 2.44, M 2.88, N 2.35, P 2.35, Q 2.45, R 2.54, S 3.21, T 2.23, V 2.03, W 2.33, Y 1.99
G14: A 2.63, C 2.37, D 2.14, E 2.78, F 1.79, H 2.13, I 2.08, K 2, L 1.96, M 2.59, N 2.46, P 2.46, Q 1.98, R 2.12, S 2.72, T 2.09, V 1.99, W 1.77, Y 1.99
R15: A 1.82, C 1.82, D 2.24, E 2.52, F 1.79, G 2.36, H 1.85, I 1.91, K 2.52, L 2.06, M 1.73, N 1.83, P 1.66, Q 1.74, S 1.73, T 1.93, V 2.3, W 1.61, Y 2.38
K16: A 2.67, C 2.53, D 2.35, E 1.93, F 2.17, G 2.15, H 2.39, I 2.37, L 2.49, M 1.68, N 1.92, P 2.25, Q 2.62, R 2.44, S 1.95, T 2.82, V 2.05, W 2.33

Reference: the supplement of paper PMC10567573
